Consider six proteins from paper PMC4377555, “A novel PKD2L1 C-terminal domain critical for trimerization and channel function” (Scientific Reports, 2015).

“And” between values parts separate entries of the source, which are not always exact repeats. Identical values can stand only once.

Data set [1] concerns the molecule itself. As to the kind of experiment: native gel or EMSA; BN-PAGE of purified GFP fusion proteins, Coomassie blue staining.
Data set [2] concerns the molecule itself. As to the kind of experiment: non-reducing SDS-PAGE with Western blot; lysates of transfected HEK or HeLa cells, SDS loading buffer without reducing reagents, on ice 5 min, 8% gel; some samples also under reducing condition or with 10 mM NEM in the lysis buffer.
Data set [3] concerns the molecule itself. Put plainly: native gel or EMSA; BN-PAGE with Western blot of HeLa cell lysates (NativePAGE Sample Prep Kit, Coomassie G-250, 3-12% BisTris gels), non-denaturing.
Data set [4] deals with the molecule itself. As to the kind of experiment: dynamic light scattering; Malvern Zetasizer Nano ZS, 25°C; 50 mM NaH2PO4, 300 mM NaCl, 250 mM imidazole, pH 8.0; 0.4 mg/ml; oligomeric state from the apparent hydrodynamic diameter.

B1: GFP-C1 (GFP fused to PKD2L1 C1, K575-T622) (domain or fragment, human, UniProt Q9P0L9-1 575-622, looked up)
chain: KDELQLSDLLKQGYNKTLLRLRLRKERVSDVQKVLQGGEQEIQFEDFT
notes: PKD2L1, human, domain C1 K575-T622 (48 amino acids), in pET28a(+) with an upstream GFP gene; source: E. coli BL21 (DE3), purified (Ni-NTA); not shown: GFP, N-terminal, kept
As for B1, the “stoichiometry N” value in data set [1] is 3.

B2: human PKD2L1 over-expressed from pcDNA3.1(+) (natural protein, UniProt Q9P0L9-1 1-805, looked up)
chain: MNAVGSPEGQELQKLGSGAWDNPAYSGPPSPHGTLRVCTISSTGPLQPQPKKPEDEPQETAYRTQVSSCCLHICQGIRGLWGTTLTENTAENRELYIKTTLRELLVYIVFLVDICLLTYGMTSSSAYYYTKVMSELFLHTPSDTGVSFQAISSMADFWDFAQGPLLDSLYWTKWYNNQSLGHGSHSFIYYENMLLGVPRLRQLKVRNDSCVVHEDFREDILSCYDVYSPDKEEQLPFGPFNGTAWTYHSQDELGGFSHWGRLTSYSGGGYYLDLPGSRQGSAEALRALQEGLWLDRGTRVVFIDFSVYNANINLFCVLRLVVEFPATGGAIPSWQIRTVKLIRYVSNWDFFIVGCEVIFCVFIFYYVVEEILELHIHRLRYLSSIWNILDLVVILLSIVAVGFHIFRTLEVNRLMGKLLQQPNTYADFEFLAFWQTQYNNMNAVNLFFAWIKIFKYISFNKTMTQLSSTLARCAKDILGFAVMFFIVFFAYAQLGYLLFGTQVENFSTFIKCIFTQFRIILGDFDYNAIDNANRILGPAYFVTYVFFVFFVLLNMFLAIINDTYSEVKEELAGQKDELQLSDLLKQGYNKTLLRLRLRKERVSDVQKVLQGGEQEIQFEDFTNTLRELGHAEHEITELTATFTKFDRDGNRILDEKEQEKMRQDLEEERVALNTEIEKLGRSIVSSPQGKSGPEAARAGGWVSGEEFYMLTRRVLQLETVLEGVVSQIDAVGSKLKMLERKGWLAPSPGVKEQAIWKHPQPAPAVTPDPWGVQGGQESEVPYKREEEALEERRLSRGEIPTLQRS
notes: PKD2L1, human, full-length cDNA in pcDNA3.1(+), no tag named for this experiment; also called TRPP3; source: HEK293T and HeLa cells, transfected, in lysate
On to B2, for which, in data set [2], the “stoichiometry N” value is 2 and 3 and 4.

B3: Flag-tagged human PKD2L1 WT (natural protein, UniProt Q9P0L9-1 1-805, looked up)
chain: B2 chain
notes: PKD2L1, human, full-length cDNA in pcDNA3.1(+), Flag inserted 5' of the coding region; also called Flag-PKD2L1; source: HeLa cells, transfected, in lysate; not shown: Flag, N-terminal, kept
Turning to B3, in data set [3], the “stoichiometry N” value was 3 and 2.

B4: Flag-tagged PKD2L1 ΔNT/T622X (M1-Y96 and T622-S805 double deletion) (domain or fragment, human, UniProt Q9P0L9-1 97-621, looked up)
chain: IKTTLRELLVYIVFLVDICLLTYGMTSSSAYYYTKVMSELFLHTPSDTGVSFQAISSMADFWDFAQGPLLDSLYWTKWYNNQSLGHGSHSFIYYENMLLGVPRLRQLKVRNDSCVVHEDFREDILSCYDVYSPDKEEQLPFGPFNGTAWTYHSQDELGGFSHWGRLTSYSGGGYYLDLPGSRQGSAEALRALQEGLWLDRGTRVVFIDFSVYNANINLFCVLRLVVEFPATGGAIPSWQIRTVKLIRYVSNWDFFIVGCEVIFCVFIFYYVVEEILELHIHRLRYLSSIWNILDLVVILLSIVAVGFHIFRTLEVNRLMGKLLQQPNTYADFEFLAFWQTQYNNMNAVNLFFAWIKIFKYISFNKTMTQLSSTLARCAKDILGFAVMFFIVFFAYAQLGYLLFGTQVENFSTFIKCIFTQFRIILGDFDYNAIDNANRILGPAYFVTYVFFVFFVLLNMFLAIINDTYSEVKEELAGQKDELQLSDLLKQGYNKTLLRLRLRKERVSDVQKVLQGGEQEIQFEDF
notes: PKD2L1, human, M1-Y96 and T622-S805 deleted; source: HeLa cells, transfected, in lysate; not shown: Flag, N-terminal, kept
For the protein B4, the “stoichiometry N” value in data set [2] came to 3.

B5: purified PKD2L1 C-terminus (CT, E566-S805) (domain or fragment, human, UniProt Q9P0L9-1 566-805, looked up)
chain: EVKEELAGQKDELQLSDLLKQGYNKTLLRLRLRKERVSDVQKVLQGGEQEIQFEDFTNTLRELGHAEHEITELTATFTKFDRDGNRILDEKEQEKMRQDLEEERVALNTEIEKLGRSIVSSPQGKSGPEAARAGGWVSGEEFYMLTRRVLQLETVLEGVVSQIDAVGSKLKMLERKGWLAPSPGVKEQAIWKHPQPAPAVTPDPWGVQGGQESEVPYKREEEALEERRLSRGEIPTLQRS
notes: PKD2L1, human, C-terminus E566-S805; the methods describe only GFP-C1 in pET28a(+) and Ni-NTA; the DLS buffer holds 250 mM imidazole; source: E. coli, purified
Consider B5, for which the “stoichiometry N” value in data set [4] was found to be 3.

B6: Flag-tagged PKD2L1 ΔNT (deletion of M1-Y96) (domain or fragment, human, UniProt Q9P0L9-1 97-805, looked up)
chain: IKTTLRELLVYIVFLVDICLLTYGMTSSSAYYYTKVMSELFLHTPSDTGVSFQAISSMADFWDFAQGPLLDSLYWTKWYNNQSLGHGSHSFIYYENMLLGVPRLRQLKVRNDSCVVHEDFREDILSCYDVYSPDKEEQLPFGPFNGTAWTYHSQDELGGFSHWGRLTSYSGGGYYLDLPGSRQGSAEALRALQEGLWLDRGTRVVFIDFSVYNANINLFCVLRLVVEFPATGGAIPSWQIRTVKLIRYVSNWDFFIVGCEVIFCVFIFYYVVEEILELHIHRLRYLSSIWNILDLVVILLSIVAVGFHIFRTLEVNRLMGKLLQQPNTYADFEFLAFWQTQYNNMNAVNLFFAWIKIFKYISFNKTMTQLSSTLARCAKDILGFAVMFFIVFFAYAQLGYLLFGTQVENFSTFIKCIFTQFRIILGDFDYNAIDNANRILGPAYFVTYVFFVFFVLLNMFLAIINDTYSEVKEELAGQKDELQLSDLLKQGYNKTLLRLRLRKERVSDVQKVLQGGEQEIQFEDFTNTLRELGHAEHEITELTATFTKFDRDGNRILDEKEQEKMRQDLEEERVALNTEIEKLGRSIVSSPQGKSGPEAARAGGWVSGEEFYMLTRRVLQLETVLEGVVSQIDAVGSKLKMLERKGWLAPSPGVKEQAIWKHPQPAPAVTPDPWGVQGGQESEVPYKREEEALEERRLSRGEIPTLQRS
notes: PKD2L1, human, deletion of the N-terminus M1-Y96; also called Flag-ΔNT; Ctrl (ΔNT); source: HeLa or HEK cells, transfected, in lysate; not shown: Flag, N-terminal, kept
With B6, the “stoichiometry N” value in data set [3] was 3.
